Test results published in PMC8060857.

Biological target: HR-C1 peptide (SARS-CoV (Urbani strain)) (UniProt P59594)
Test: SDS-PAGE of samples not heated

For “HR-C1 peptide (from UniProt P59594 1147-1185)”, the stoichiometry N was 3.
